Substrate: O=[N+]([O-])c1ccc(O[C@@H]2OC[C@@H](O)[C@H](O)[C@H]2O)cc1
Assay: purified protein
Assay type: biochemical, Sporisorium reilianum
Settings: 50 mM-type acetate buffer assay, pH 4, substrate 1-7 mM, temperature not stated for the kinetics

B1: β-xylosidase SRBX1 (Sporisorium reilianum SRZ2) (protein)
chain: ASLEHLNMLFHTRQADASNSTDSSSVNWNISSSDNSALATAPLAGTFYRGGPALADANSPFHPVTGNGGWEWAVVKARSVVGQLTLEEKVNLTAGITGGRCEGTLGRVDRFGIPELCFQDGPAGFRASDFVTVFPAGVTTAATWNRDLIYKRAAALGAEFVAKGVNVHLGPVTGGPLGRSPFQGRNWEGFGPDPYLHGEAAYYTVSGTQSAGVISTAKHFLAYEQETYRQLYAASDPFTLNPNNNTELTYSANLDDRTLHELYLWPFMNAVRAGTGALVCVYNRVNSTQGCESSKLLNEILKDELDYQGFVVTDWSAAFNTSNTYNGGSDVVMPGGMTGGYKNLVGGSDLVRALNAGEVKIERINDGITRLLTQWYLRGQDKGYPTVSYKDGYQNTIFNGTVVNEHRDVQGDHRKIVKEIGEEAVTLIYNKRSNKAGPQGNTDFGLGLPLAKKARVAVFGSDAGPNPYGANACQDWIGLGSQLCPANATSNGTQAVGWGSGAGFFPYLIDPLAGISEVAKENRGAVLHNLNDVGDDKNQMYVKQQAGLADASLVFVQARSGEDSDRHSLRLDADGDELIKLVASQSNNTIVVMHTVGPVLMGDWFDHPNITALVLPHLPGQESGSSLARVLYGDVNPSGKMPYSMLSDEDAKRYPKIVGSPASDPQVDFYDGLYIDYRAWDKMGLKPLIPFGHGISYTNYSYSNLHIQKAGDNCYAPSAFSGSFKSDKQPGGPGSLFQYLVEVSADVQNVGAMAGDEVAQLYVGYPEAANAPIKQLRGFDKVQGLEPGAASKQATFKLAKRDFSVWDVVKQKFEVVDGEYKIWVGKSSRMSDLTLKGSVTMQNGMVVGMSS
notes: native extracellular enzyme purified from S. reilianum culture supernatant by gel filtration; theoretical precursor 874 aa, signal peptide 1-23; monomer; 12 theoretical glycosylation sites; no tag
Km: 2500 µM
